Experimental data as given in publication PMC5402393, “Interactions of AMTN, ODAM and SCPPPQ1 proteins of a specialized basal lamina that attaches epithelial cells to tooth mineral” (Scientific Reports, 2017).

B1: recombinant human AMTN, purified, His-tag cleaved (natural protein, UniProt Q6UX39 17-209, looked up)
chain: LPQLKPALGLPPTKLAPDQGTLPNQQQSNQVFPSLSLIPLTQMLTLGPDLHLLNPAAGMTPGTQTHPLTLGGLNVQQQLHPHVLPIFVTQLGAQGTILSSEELPQIFTSLIIHSLFPGGILPTSQAGANPDVQDGSLPAGGAGVNPATQGTPAGRLPTPSGTDDDFAVTTPAGIQRSTHAIEEATTESANGIQ
notes: ~21 kDa; also called hAMTN; source: E. coli BL21(DE3)-star, purified (Ni-NTA, TEV cleavage, S200 gel filtration); not shown: His6, N-terminal, cleaved
B2: recombinant human ODAM, purified, His-tag cleaved (natural protein, UniProt A1E959 16-279, looked up)
chain: APLIPQRLMSASNSNELLLNLNNGQLLPLQLQGPLNSWIPPFSGILQQQQQAQIPGLSQFSLSALDQFAGLLPNQIPLTGEASFAQGAQAGQVDPLQLQTPPQTQPGPSHVMPYVFSFKMPQEQGQMFQYYPVYMVLPWEQPQQTVPRSPQQTRQQQYEEQIPFYAQFGYIPQLAEPAISGGQQQLAFDPQLGTAPEIAVMSTGEEIPYLQKEAINFRHDSAGVFMPSTSPKPSTTNVFTSAVDQTITPELPEEKDKTDSLREP
notes: ~32 kDa; also called hODAM; source: E. coli BL21(DE3)-star, purified (Ni-NTA, TEV cleavage, Superose 6 gel filtration); not shown: His6, N-terminal, cleaved

Assays:
[1] = target: B2; experiment: circular dichroism; far-UV CD (180-250 nm) of purified hODAM, hAMTN and their mixture in 50 mM PB pH 7.2; change of secondary structure on mixing; settings: both partners purified
[2] = target: the molecule itself; experiment: SEC; Superose 6 GL 10/300 for ODAM, S200 for AMTN; 50 mM PB pH 7.4; purified recombinant human proteins, His-tag cleaved; self-association

| Binder | binding result [1] | stoichiometry N [2] [subunits] |
| --- | --- | --- |
| B1 | binds | 5 |
| B2 |  | 12 to 13 |
